Results taken from PMC8461720 (Journal of Parkinson's Disease, 2021).
Like-named read-outs stand apart in the source and are kept apart here.

Assays:
ERK [1] = assay type: cell-based, murine; conditions: NRTN 200 ng/ml; vehicle 0.18±0.04
GFRα2-RET = GFRα2-RET (Homo sapiens, UniProt P07949); assay: RET phosphorylation assay, GFRα2 transfected MG87RET cells; assay type: cell-based; conditions: NRTN 200 ng/ml, 15 min; vehicle 0.86±0.15
AKT [2] = assay type: cell-based, murine; conditions: NRTN 200 ng/ml; vehicle 0.63±0.02
TrkB = TrkB (Homo sapiens, UniProt Q16620); assay: Luciferase reporter assay in MG87 cells expressing TrkB; assay type: cell-based; conditions: BDNF 100 ng/ml, overnight
TrkB, sequence (Q16620 32-822, species assumed): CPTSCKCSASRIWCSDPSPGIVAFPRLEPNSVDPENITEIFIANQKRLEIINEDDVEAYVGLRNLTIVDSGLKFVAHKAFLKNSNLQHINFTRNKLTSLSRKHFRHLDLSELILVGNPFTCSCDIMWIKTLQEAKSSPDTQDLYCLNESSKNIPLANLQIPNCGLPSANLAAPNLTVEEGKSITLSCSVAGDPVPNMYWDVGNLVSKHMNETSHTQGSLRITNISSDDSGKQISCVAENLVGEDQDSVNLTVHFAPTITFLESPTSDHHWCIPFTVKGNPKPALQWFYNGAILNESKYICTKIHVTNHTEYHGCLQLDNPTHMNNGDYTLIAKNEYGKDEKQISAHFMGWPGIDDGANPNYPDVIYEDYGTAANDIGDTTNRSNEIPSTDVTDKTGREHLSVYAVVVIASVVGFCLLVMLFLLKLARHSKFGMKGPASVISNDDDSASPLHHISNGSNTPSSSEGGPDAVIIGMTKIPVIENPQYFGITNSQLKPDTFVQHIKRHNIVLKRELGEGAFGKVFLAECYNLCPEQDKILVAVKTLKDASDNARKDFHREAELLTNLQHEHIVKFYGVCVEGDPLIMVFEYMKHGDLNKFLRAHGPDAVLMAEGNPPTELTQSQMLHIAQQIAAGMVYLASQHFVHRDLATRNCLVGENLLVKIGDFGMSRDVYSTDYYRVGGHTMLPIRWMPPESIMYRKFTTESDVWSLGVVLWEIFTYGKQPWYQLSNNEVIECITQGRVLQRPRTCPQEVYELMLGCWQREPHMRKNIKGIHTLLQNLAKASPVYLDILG

RET = RET (Homo sapiens, UniProt P07949); assay: RET phosphorylation assay, GFP transfected MG87RET cells; assay type: cell-based; conditions: GDNF in the absence of GFRα1
RET, sequence (P07949 29-1114): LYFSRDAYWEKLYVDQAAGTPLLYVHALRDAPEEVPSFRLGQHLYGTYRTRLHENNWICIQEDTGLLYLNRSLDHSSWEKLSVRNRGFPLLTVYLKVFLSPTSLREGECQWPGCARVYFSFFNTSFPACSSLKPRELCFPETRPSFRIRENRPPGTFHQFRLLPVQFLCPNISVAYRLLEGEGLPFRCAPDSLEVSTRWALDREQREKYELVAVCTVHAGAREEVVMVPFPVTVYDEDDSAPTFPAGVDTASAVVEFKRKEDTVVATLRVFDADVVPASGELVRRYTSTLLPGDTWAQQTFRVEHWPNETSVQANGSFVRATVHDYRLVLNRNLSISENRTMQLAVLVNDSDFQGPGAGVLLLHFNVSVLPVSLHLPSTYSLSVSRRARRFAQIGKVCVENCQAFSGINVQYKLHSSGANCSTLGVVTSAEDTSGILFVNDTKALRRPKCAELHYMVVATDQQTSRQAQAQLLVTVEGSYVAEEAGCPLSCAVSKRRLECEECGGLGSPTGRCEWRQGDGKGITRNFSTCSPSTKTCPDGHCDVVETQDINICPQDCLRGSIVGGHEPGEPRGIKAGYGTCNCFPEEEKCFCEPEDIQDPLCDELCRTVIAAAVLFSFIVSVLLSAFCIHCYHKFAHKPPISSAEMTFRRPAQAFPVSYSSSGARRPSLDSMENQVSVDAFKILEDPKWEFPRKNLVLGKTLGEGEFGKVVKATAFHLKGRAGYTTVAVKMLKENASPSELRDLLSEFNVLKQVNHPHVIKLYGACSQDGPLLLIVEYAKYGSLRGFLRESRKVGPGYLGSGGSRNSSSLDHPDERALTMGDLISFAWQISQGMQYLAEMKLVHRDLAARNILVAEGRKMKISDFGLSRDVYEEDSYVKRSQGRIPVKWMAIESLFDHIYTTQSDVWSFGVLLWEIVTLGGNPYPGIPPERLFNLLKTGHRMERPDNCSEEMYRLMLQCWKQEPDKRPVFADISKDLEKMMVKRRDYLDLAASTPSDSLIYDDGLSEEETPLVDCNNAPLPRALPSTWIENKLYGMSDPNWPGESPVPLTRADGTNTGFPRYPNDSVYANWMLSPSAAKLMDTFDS

dopamine neurons = conditions: cited from earlier work
GFRα1-RET = GFRα1-RET (Homo sapiens, UniProt P07949); assay: RET phosphorylation assay; assay type: cell-based; conditions: GDNF 200 ng/ml, 15 min; vehicle 0.66±0.22
GFRα1-RET, sequence (P07949 29-1114): as above
GFRα1-RET, sequence (P56159 25-429 partner limits assumed): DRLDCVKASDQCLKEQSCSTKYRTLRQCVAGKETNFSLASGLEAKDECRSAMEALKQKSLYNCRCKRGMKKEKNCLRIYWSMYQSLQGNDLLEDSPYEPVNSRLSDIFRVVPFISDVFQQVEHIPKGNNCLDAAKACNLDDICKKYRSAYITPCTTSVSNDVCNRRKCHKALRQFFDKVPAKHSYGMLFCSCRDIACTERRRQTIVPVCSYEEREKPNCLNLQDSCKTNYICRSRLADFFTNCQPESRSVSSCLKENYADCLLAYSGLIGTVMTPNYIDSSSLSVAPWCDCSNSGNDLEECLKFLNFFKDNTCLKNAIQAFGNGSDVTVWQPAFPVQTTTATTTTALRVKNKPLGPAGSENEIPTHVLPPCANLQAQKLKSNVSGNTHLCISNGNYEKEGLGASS

6-OHDA lesioned rats [3] = assay: TH-ir neurite number in the striatum; assay type: in vivo, rat; conditions: BT44 0.1 and 0.3 μg/24 h, GDNF 3 μg/24 h; newly developed algorithm
AKT [4] = assay type: cell-based, murine; conditions: GDNF 200 ng/ml; vehicle 0.91±0.20
6-OHDA lesioned rats [5] = assay: Amphetamine-induced rotational assay, unilateral 6-OHDA lesion; assay type: in vivo, rat; conditions: GDNF 3 μg/24 h intrastriatal 14 days; 12 weeks post lesion
6-OHDA lesioned rats [6] = assay: Optical density of TH-ir fibers in the dorsal striatum; conditions: GDNF 3 μg/24 h; 12 weeks post lesion
ERK [7] = assay type: cell-based, murine; conditions: GDNF 200 ng/ml; vehicle 0.56±0.13
[8] = system: wild-type midbrain dopamine neurons (TH-ir cells); assay: Survival assay for primary dopamine neurons, wild-type; assay type: cell-based, mouse; conditions: GDNF 10 ng/ml ([…]), 5 days in vitro; vehicle 226.3±6.6
[9] = system: midbrain dopamine neurons exposed to MPP+; assay: Survival of MPP+-challenged dopamine neurons; assay type: cell-based, mouse; conditions: GDNF 10 ng/ml (≃[…]) with MPP+ 2 μM, 48 hours; vehicle 267.7±20.4
6-OHDA lesioned rats [10] = assay: Optical density of DAT-ir fibers in the dorsal striatum; conditions: GDNF 3 μg/24 h
6-OHDA lesioned rats [11] = assay: TH-ir cell bodies in the SNpc, CNN algorithm; assay type: in vivo, rat; conditions: GDNF 3 μg/24 h
6-OHDA lesioned rats [12] = assay: DAT-ir cell bodies in the SNpc; assay type: in vivo, rat; conditions: GDNF 3 μg/24 h
[13] = system: RET knockout midbrain dopamine neurons (TH-ir cells); assay: Survival assay for primary dopamine neurons, RET knockout; assay type: cell-based, mouse; conditions: GDNF 10 ng/ml (≃[…]), 5th day in vitro

GFRα2-RET, sequence (P07949 29-1114): as the sequence (P07949 29-1114) above

B1: NRTN: human recombinant neurturin (protein, UniProt Q99748 96-197, looked up)
Neurturin: ARLGARPCGLRELEVRVSELGLGYASDETVLFRYCAGACEAAARVYDLGLRRLRQRRRLRRERVRAQPCCRPTAYEDEVSFLDAHSRYHTVHELSARECACV
level of ERK phosphorylation (pERK normalized to GAPDH) (ERK [1]): 1.14±0.15 | level of RET phosphorylation (pRET band normalized to RET) (GFRα2-RET): 3.34±0.41 | level of AKT phosphorylation (pAKT normalized to GAPDH) (AKT [2]): 1.72±0.13

B2: BDNF: brain-derived neurotrophic factor (protein, UniProt P23560 19-247, looked up)
Neurotrophic factor BDNF …: APMKEANIRGQGGLAYPGVRTHGTLESVNGPKAGSRGLTSLADTFEHVIEELLDEDQKVRPNEENNKDADLYTSRVMLSSQVPLEPPLLFLLEEYKNYLDAANMSMRVRRHSDPARRGELSVCDSISEWVTAADKKTAVDMSGGTVTVLEKVPVSKGQLKQYFYETKCNPMGYTKEGCRGIDKRHWNSQCRTTQSYVRALTMDSKKRIGWRFIRIDTSCVCTLTIKRGR
luciferase activity in reporter cells expressing TrkB (TrkB): increased the luciferase activity

B3: GDNF: Human recombinant glial cell line-derived neurotrophic factor (protein, UniProt P39905 78-211, looked up)
Glial cell line-derived …: SPDKQMAVLPRRERNRQAAAANPENSRGKGRRGQRGKNRGCVLTAIHLNVTDLGLGYETKEELIFRYCSGSCDAAETTYDKILKNLSRNRRLVSDKVGQACCRPIAFDDDLSFLDDNLVYHILRKHSAKRCGCI
RET activation (RET): did not activate RET | GDNF concentration at which effects on neuronal survival are detected (dopamine neurons; ref 52): 1 ng/mL | GDNF concentration at which somewhat increase in survival is already detectable (dopamine neurons; ref 52): 0.1 ng/mL | GDNF concentration at which effects on neuronal survival are detected (dopamine neurons; ref 81): 5 ng/mL | level of RET phosphorylation (pRET band normalized to RET) (GFRα1-RET): 2.59±0.33 | number of TH-ir fibers (neurite number) in the striatum (6-OHDA lesioned rats [3]): No statistically significant differences | level of AKT phosphorylation (pAKT normalized to GAPDH) (AKT [4]): 4.77±0.43 | number of net ipsilateral turns (120 min) (6-OHDA lesioned rats [5]): 149.1±47.9 | TH-ir fiber density relative to PBS treated rats (6-OHDA lesioned rats [6]): 2.6 times | density of TH-ir fibers in the striatum (6-OHDA lesioned rats [6]): 15.8±1.6 % of the intact side | level of ERK phosphorylation (pERK normalized to GAPDH) (ERK [7]): 2.76±0.37 | number of TH-ir cells [8]: 384.0±35.2 | number of TH-ir neurons [9]: 333.0±12.6 | DAT-ir fiber density relative to PBS (6-OHDA lesioned rats [10]): 9.9 times | density of DAT-ir fibers in the striatum (6-OHDA lesioned rats [10]; 12 weeks post lesion): 9.9±1.7 % of the intact side | number of TH-ir cell bodies relative to PBS (6-OHDA lesioned rats [11]): 2.5 times | number of TH-ir cell bodies relative to PG (6-OHDA lesioned rats [11]): 2.3 times | number of TH-ir cell bodies in the SNpc, Lesioned/Intact side (%) (6-OHDA lesioned rats [11]; 12 weeks post lesion, PBS 11.5±0.9, PG 12.6±0.9): 29.1±2.8 % of the intact side | number of DAT-ir cell bodies relative to PBS (6-OHDA lesioned rats [12]): 2.2 times | number of DAT-ir cell bodies in the SNpc (6-OHDA lesioned rats [12]; 12 weeks post lesion, PBS 9.5±1.4, PG 11.6±1.3): 20.7±2.9 % of the intact side | survival promoting effect [13]: did not observe survival promoting effect
